Here are results for 7 molecules from publication PMC3505452 (Science (New York, N.Y.), 2012).

The target in one series is UVR8^R146A (Arabidopsis) (UniProt Q9FN03). As to the kind of experiment: SEC. (In general: In gel filtration, larger molecules generally elute earlier.)
The next series concerns the target UVR8^R286A (Arabidopsis) (UniProt Q9FN03). Kind of series: SEC.
The series “SAXS” deals with the molecule itself. As to the kind of experiment: SAXS.
Series [1] addresses T1, UVR8 (UV … LOCUS 8), recombinant Arabidopsis, full-length wild type (Arabidopsis), Q9FN03.
T1 chain: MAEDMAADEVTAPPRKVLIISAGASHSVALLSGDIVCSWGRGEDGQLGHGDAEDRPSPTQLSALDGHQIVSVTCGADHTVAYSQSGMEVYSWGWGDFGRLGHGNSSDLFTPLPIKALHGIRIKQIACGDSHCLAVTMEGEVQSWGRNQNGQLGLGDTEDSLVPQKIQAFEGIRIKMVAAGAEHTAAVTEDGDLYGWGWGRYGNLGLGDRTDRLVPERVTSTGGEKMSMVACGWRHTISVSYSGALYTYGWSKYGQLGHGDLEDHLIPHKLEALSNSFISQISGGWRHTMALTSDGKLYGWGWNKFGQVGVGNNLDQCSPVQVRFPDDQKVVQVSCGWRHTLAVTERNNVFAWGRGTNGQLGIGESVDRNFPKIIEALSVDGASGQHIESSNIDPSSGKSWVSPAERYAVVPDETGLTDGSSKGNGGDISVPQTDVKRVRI
As to the kind of experiment: SAXS. The note with it: remark: other sources report otherwise.

The target of series [2] is T1, UVR8 (UV … LOCUS 8), recombinant …. Kind of series: SEC-MALS. The note with it: remark: other sources report otherwise.
The target is the same in series [3]. As to the kind of experiment: SDS-PAGE without sample boiling. As to conditions: remark: other sources report otherwise.
For series [4] the target is unchanged. Kind of series: SEC. The note with it: remark: other sources report otherwise.
The series “SEC” concerns the molecule itself. Kind of series: SEC.
Series [5] has as its target T2, UVR8^W233F (Arabidopsis), Q9FN03.
T2 chain: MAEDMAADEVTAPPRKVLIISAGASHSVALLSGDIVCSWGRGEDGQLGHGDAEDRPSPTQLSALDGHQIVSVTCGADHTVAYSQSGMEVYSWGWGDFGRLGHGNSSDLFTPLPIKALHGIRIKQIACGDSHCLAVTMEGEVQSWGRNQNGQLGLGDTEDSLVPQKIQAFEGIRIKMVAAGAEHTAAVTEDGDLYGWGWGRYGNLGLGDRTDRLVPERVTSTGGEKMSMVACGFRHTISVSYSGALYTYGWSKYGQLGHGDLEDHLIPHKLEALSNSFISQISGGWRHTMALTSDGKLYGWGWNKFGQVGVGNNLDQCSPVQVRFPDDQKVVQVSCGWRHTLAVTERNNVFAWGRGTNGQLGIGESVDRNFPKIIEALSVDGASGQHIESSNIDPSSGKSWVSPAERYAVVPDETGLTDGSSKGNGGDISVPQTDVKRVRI
As to the kind of experiment: SEC. The note with it: remark: other sources report otherwise.

Series [6] shares this target. As to the kind of experiment: SEC. The note with it: remark: other sources report otherwise.
Series [7] addresses T3, UVR8^W285A (Arabidopsis), Q9FN03.
T3 chain: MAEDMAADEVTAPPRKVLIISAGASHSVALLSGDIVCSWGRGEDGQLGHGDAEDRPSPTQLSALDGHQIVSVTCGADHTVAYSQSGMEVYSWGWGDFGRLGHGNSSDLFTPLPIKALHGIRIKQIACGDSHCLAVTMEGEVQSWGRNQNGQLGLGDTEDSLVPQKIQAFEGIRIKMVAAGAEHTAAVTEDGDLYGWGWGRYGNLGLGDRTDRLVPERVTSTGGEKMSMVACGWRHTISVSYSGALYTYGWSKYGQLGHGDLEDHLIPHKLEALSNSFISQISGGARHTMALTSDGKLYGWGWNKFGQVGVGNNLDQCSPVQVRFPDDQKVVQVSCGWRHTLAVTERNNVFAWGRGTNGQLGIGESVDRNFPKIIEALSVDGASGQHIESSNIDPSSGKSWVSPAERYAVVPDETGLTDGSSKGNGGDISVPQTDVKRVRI
As to the kind of experiment: SAXS. The note with it: remark: other sources report otherwise.

For orientation: stoichiometry N means a count of units in the complex or per binding partner. “UVR8^R146A (from UniProt Q9FN03 1-440) (natural protein)”: the stoichiometry N in the series with UVR8^R146A (Arabidopsis) amounted to 2.
“UVR8^R286A (from UniProt Q9FN03 1-440) (natural protein)” registered a stoichiometry N in the series with UVR8^R286A (Arabidopsis) of 2.

B1: trypsin-treated UVR8 (crystallographic construct) (domain or fragment, Arabidopsis)
chain: MAEDMAADEVTAPPRKVLIISAGASHSVALLSGDIVCSWGRGEDGQLGHGDAEDRPSPTQLSALDGHQIVSVTCGADHTVAYSQSGMEVYSWGWGDFGRLGHGNSSDLFTPLPIKALHGIRIKQIACGDSHCLAVTMEGEVQSWGRNQNGQLGLGDTEDSLVPQKIQAFEGIRIKMVAAGAEHTAAVTEDGDLYGWGWGRYGNLGLGDRTDRLVPERVTSTGGEKMSMVACGWRHTISVSYSGALYTYGWSKYGQLGHGDLEDHLIPHKLEALSNSFISQISGGWRHTMALTSDGKLYGWGWNKFGQVGVGNNLDQCSPVQVRFPDDQKVVQVSCGWRHTLAVTERNNVFAWGRGTNGQLGIGESVDRNFPKIIEALSVDGASGQHIESSNIDPSSGKSWVSPAE
In the case of B1, in “SAXS”, the “stoichiometry N” value worked out at 2.

B2: UVR8 (UV … LOCUS 8), recombinant Arabidopsis, full-length wild type, Q9FN03 1-440 (natural protein)
chain: MAEDMAADEVTAPPRKVLIISAGASHSVALLSGDIVCSWGRGEDGQLGHGDAEDRPSPTQLSALDGHQIVSVTCGADHTVAYSQSGMEVYSWGWGDFGRLGHGNSSDLFTPLPIKALHGIRIKQIACGDSHCLAVTMEGEVQSWGRNQNGQLGLGDTEDSLVPQKIQAFEGIRIKMVAAGAEHTAAVTEDGDLYGWGWGRYGNLGLGDRTDRLVPERVTSTGGEKMSMVACGWRHTISVSYSGALYTYGWSKYGQLGHGDLEDHLIPHKLEALSNSFISQISGGWRHTMALTSDGKLYGWGWNKFGQVGVGNNLDQCSPVQVRFPDDQKVVQVSCGWRHTLAVTERNNVFAWGRGTNGQLGIGESVDRNFPKIIEALSVDGASGQHIESSNIDPSSGKSWVSPAERYAVVPDETGLTDGSSKGNGGDISVPQTDVKRVRI
Take B2: the stoichiometry N in [1], in [2], in series [3] and in [4] was 2 throughout.

B3: UVR8^W285F (natural protein, Arabidopsis, UniProt Q9FN03 1-440, looked up)
chain: MAEDMAADEVTAPPRKVLIISAGASHSVALLSGDIVCSWGRGEDGQLGHGDAEDRPSPTQLSALDGHQIVSVTCGADHTVAYSQSGMEVYSWGWGDFGRLGHGNSSDLFTPLPIKALHGIRIKQIACGDSHCLAVTMEGEVQSWGRNQNGQLGLGDTEDSLVPQKIQAFEGIRIKMVAAGAEHTAAVTEDGDLYGWGWGRYGNLGLGDRTDRLVPERVTSTGGEKMSMVACGWRHTISVSYSGALYTYGWSKYGQLGHGDLEDHLIPHKLEALSNSFISQISGGFRHTMALTSDGKLYGWGWNKFGQVGVGNNLDQCSPVQVRFPDDQKVVQVSCGWRHTLAVTERNNVFAWGRGTNGQLGIGESVDRNFPKIIEALSVDGASGQHIESSNIDPSSGKSWVSPAERYAVVPDETGLTDGSSKGNGGDISVPQTDVKRVRI
B3: the “stoichiometry N” value in the series “SEC” worked out at 2.

B4: UVR8^W233F, Q9FN03 1-440 (natural protein)
chain: MAEDMAADEVTAPPRKVLIISAGASHSVALLSGDIVCSWGRGEDGQLGHGDAEDRPSPTQLSALDGHQIVSVTCGADHTVAYSQSGMEVYSWGWGDFGRLGHGNSSDLFTPLPIKALHGIRIKQIACGDSHCLAVTMEGEVQSWGRNQNGQLGLGDTEDSLVPQKIQAFEGIRIKMVAAGAEHTAAVTEDGDLYGWGWGRYGNLGLGDRTDRLVPERVTSTGGEKMSMVACGFRHTISVSYSGALYTYGWSKYGQLGHGDLEDHLIPHKLEALSNSFISQISGGWRHTMALTSDGKLYGWGWNKFGQVGVGNNLDQCSPVQVRFPDDQKVVQVSCGWRHTLAVTERNNVFAWGRGTNGQLGIGESVDRNFPKIIEALSVDGASGQHIESSNIDPSSGKSWVSPAERYAVVPDETGLTDGSSKGNGGDISVPQTDVKRVRI
For B4, the stoichiometry N in series [5] and in [6] was 2 each time.

B5: UVR8^W285A, Q9FN03 1-440 (natural protein)
chain: MAEDMAADEVTAPPRKVLIISAGASHSVALLSGDIVCSWGRGEDGQLGHGDAEDRPSPTQLSALDGHQIVSVTCGADHTVAYSQSGMEVYSWGWGDFGRLGHGNSSDLFTPLPIKALHGIRIKQIACGDSHCLAVTMEGEVQSWGRNQNGQLGLGDTEDSLVPQKIQAFEGIRIKMVAAGAEHTAAVTEDGDLYGWGWGRYGNLGLGDRTDRLVPERVTSTGGEKMSMVACGWRHTISVSYSGALYTYGWSKYGQLGHGDLEDHLIPHKLEALSNSFISQISGGARHTMALTSDGKLYGWGWNKFGQVGVGNNLDQCSPVQVRFPDDQKVVQVSCGWRHTLAVTERNNVFAWGRGTNGQLGIGESVDRNFPKIIEALSVDGASGQHIESSNIDPSSGKSWVSPAERYAVVPDETGLTDGSSKGNGGDISVPQTDVKRVRI
Molecule B5 registered a stoichiometry N in [7] of 2.
